In US20260184778A1 (REGENECORE BIOTECH, published 2026):
One block for each molecule: values may come before it.

Tests used:
Experiment in all cases: cell-based or functional assay
IL-5 = IL-5 (human, UniProt P05113 20-134)
IL-4Rα [1] = biological target: T1, IL-4Rα (human, UniProt P24394 26-232, limits assumed)
IL-4Rα [2] = biological target: T1, IL-4Rα; remark: listed apart in the source

Chain of IL-5 (P05113 20-134 limits assumed): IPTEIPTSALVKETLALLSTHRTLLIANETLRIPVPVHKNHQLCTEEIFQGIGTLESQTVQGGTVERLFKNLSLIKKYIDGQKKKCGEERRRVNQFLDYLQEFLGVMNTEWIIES

EC50 (nM), neutralizing IL-5-induced TF-1 cell proliferation (control) (IL-5): 0.108 nM
Molecule: hIgG (antibody)

EC50 (nM), neutralizing IL-5-induced TF-1 cell proliferation (IL-5): 0.122 nM
B1: reslizumab (Tab made by the applicant) (antibody, V domains shown)
VH: EVQLVESGGGLVQPGGSLRLSCAVSGLSLTSNSVNWIRQAPGKGLEWVGLIWSNGDTDYNSAIKSRFTISRDTSKSTVYLQMNSLRAEDTAVYYCAREYYGYFDYWGQGTLVTVSS
VL: DIQMTQSPSSLSASVGDRVTITCLASEGISSYLAWYQQKPGKAPKLLIYGANSLQTGVPSRFSGSGSATDYTLTISSLQPEDFATYYCQQSYKFPNTFGQGTKVEVK

EC50 (nM), neutralizing IL-4-induced TF-1 proliferation (IL-4Rα [1]): 0.13 nM | EC50(nM), neutralizing IL-13-induced TF-1 proliferation (IL-4Rα [2]): 0.178 nM
B2: dupilumab (Tab made by the applicant) (antibody, V domains shown)
VH: EVQLVESGGGLEQPGGSLRLSCAGSGFTFRDYAMTWVRQAPGKGLEWVSSISGSGGNTYYADSVKGRFTISRDNSKNTLYLQMNSLRAEDTAVYYCAKDRLSITIRPRYYGLDVWGQGTTVTVSS
VL: DIVMTQSPLSLPVTPGEPASISCRSSQSLLYSIGYNYLDWYLQKSGQSPQLLIYLGSNRASGVPDRFSGSGSGTDFTLKISRVEAEDVGFYYCMQALQTPYTFGQGTKLEIKR
